“Also recorded” adds a separate entry of the source.
Test system: chromosomally integrated CMV-7tetO luciferase reporter in HeLa X1/6 cells
Experiment: rtTA activity assay, HeLa X1/6 cells with integrated CMV-7tetO luciferase reporter (Example 1, FIG. 2-3, 5, 14, 15)
Type: cell-based
Settings: for rtTA activation by minocycline (Mc): 0-10000 ng/ml Mc; for rtTA activation by tetracycline (Tc): 0-10000 ng/ml Tc; for basal / background activity in the absence of inducer: no dox or other effector
From the text: To test whether this rtTA optimization reflects a specific adaptation to the viral LTR-2ΔtetO promoter, we assayed rtTA activity with a reporter gene construct in which luciferase expression is under the control of a minimal CMV promoter coupled to an array of seven tetO elements. […] Thus, the observed mutations in rtTA are not virus-specific adaptations, but are general improvements of the Tet-on system. We also assayed rtTA activity in HeLa X1/6 cells that contain chromosomally integrated copies of the CMV-7tetO luciferase reporter construct (FIG. 2C). In these cells, the evolved rtTAs show a similar pattern of activity as with episomal reporter gene constructs in C33A cells. Thus, these mutations improve rtTA activity independent of the type of promoter and the episomal or chromosomal status of the target gene.
The V10 variant needs only 44 ng/ml dox to reach this activity level, which reflects a 23-fold higher dox-sensitivity than the wild-type rtTA.
rtTA activity assay. Two firefly luciferase reporter constructs with different promoter configurations were used. pLTR-2ΔtetO-luc contains the LTR-2ΔtetO promoter derived from the HIV-rtTA molecular clone (Marzio et al. 2001; Marzio et al. 2002). pCMV-7tetO-luc, previously named pUHC13-3 (Gossen et al. 1992), contains seven tetO elements located upstream of a minimal CMV promoter. The plasmid pRL-CMV (PROMEGA®, Madison, Wis., USA), in which the expression of Renilla luciferase is controlled by the CMV promoter, was used as an internal control to allow correction for differences in transfection efficiency.
C33A and HeLa X1/6 cells were grown in 2-cm^2 wells to 60% confluency and transfected by the calcium phosphate precipitation method (Das et al. 1999). C33A cells were transfected with 0.4 ng pCMV-rtTA (wild-type or mutant), 20 ng pLTR-2ΔtetO-luc or pCMV-7tetO-luc, 0.5 ng pRL-CMV, and 980 ng pBluescript as carrier DNA. HeLa X1/6 cells were transfected with 8 ng pCMV-rtTA, 2.5 ng pRL-CMV, and 990 ng pBluescript. The amount of the DNA constructs was optimized for each cell type to keep rtTA-mediated transactivation within the linear range and to avoid squelching of transcription factors. Cells were cultured for 48 hours in the presence of different concentrations of dox, Tc or Mc, and lysed in Passive Lysis Buffer (PROMEGA®). Firefly and Renilla luciferase activities were determined with the dual-luciferase reporter assay (PROMEGA®). The activity of the rtTA variants was calculated as the ratio of the firefly and Renilla luciferase activities, and corrected for between-session variation.
FIG. 2. Novel rtTA variants show increased activity and dox-sensitivity in different Tet systems. The transcriptional activity of rtTA variants was measured in C33A cells transfected with a plasmid carrying the firefly luciferase reporter gene under the control of the viral LTR-2ΔtetO promoter (LTR-2ΔtetO; A) or under the control of a minimal CMV-derived promoter coupled to seven tetO elements (CMV7-tetO; B). Furthermore, rtTA activity was measured in HeLa X1/6 cells (Baron et al. 1997) that contain a chromosomally integrated copy of the CMV-7tetO reporter construct (CMV7tetO-integrated; C, D). Variants V1 to V10 were compared in all three Tet systems (panels A-C) and variants V11 to V18 in the cells with the integrated reporter (panel D). Cells were transfected with the indicated rtTA expression plasmid or pBluescript as a negative control, and a plasmid constitutively expressing Renilla luciferase to correct for differences in transfection efficiency. Cells were cultured in the presence of different dox concentrations (0-1000 ng/ml). The ratio of the firefly and Renilla luciferase activities measured 2 days after transfection reflects the rtTA activity. All values were related to the wild-type (wt) rtTA activity at 1000 ng/ml dox, which was arbitrarily set at 100%. In (C and D), average values of three transfections are shown with error bars indicating the standard deviation.
FIG. 3. […]

[1] = listed as C68R V9I G138D F86Y A209T
[2] = listed as S12G F67S V9I G138D F86Y A209T

B1: V9I C68R G138D F86Y A209T: rtTA variant with these amino acid substitutions (protein)
chain: MSRLDKSKIINSALELLNGVGIEGLTTRKLAQKLGVEQPTLYWHVKNKRALLDALPIEMLDRHHTHFRPLEGESWQDFLRNNAKSYRCALLSHRDGAKVHLGTRPTEKQYETLENQLAFLCQQGFSLENALYALSAVDHFTLGCVLEEQEHQVAKEERETPTTDSMPPLLRQAIELFDRQGAEPAFLFGLELIICGLEKQLKCESGGPTDALDDFDLDMLPADALDDFDLDMLPADALDDFDLDMLPG
[1]
  rtTA activation by minocycline (Mc): particularly sensitive for minocycline; also recorded: very sensitive for minocycline
  rtTA activation by tetracycline (Tc): particularly sensitive for tetracycline; also recorded: very sensitive for tetracycline
  basal / background activity in the absence of inducer: low background activity
  basal / background activity in the absence of inducer: no or low basal activity

B2: V9I G19M F67S G138D F86Y A209T: rtTA variant with these amino acid substitutions (protein)
chain: MSRLDKSKIINSALELLNMVGIEGLTTRKLAQKLGVEQPTLYWHVKNKRALLDALPIEMLDRHHTHSCPLEGESWQDFLRNNAKSYRCALLSHRDGAKVHLGTRPTEKQYETLENQLAFLCQQGFSLENALYALSAVDHFTLGCVLEEQEHQVAKEERETPTTDSMPPLLRQAIELFDRQGAEPAFLFGLELIICGLEKQLKCESGGPTDALDDFDLDMLPADALDDFDLDMLPADALDDFDLDMLPG
  rtTA activation by minocycline (Mc): particularly sensitive for minocycline
  rtTA activation by tetracycline (Tc): particularly sensitive for tetracycline
  basal / background activity in the absence of inducer: no or low basal activity

B3: V9I S12G F67S G138D F86Y: rtTA variant with these amino acid substitutions (protein)
chain: MSRLDKSKIINGALELLNGVGIEGLTTRKLAQKLGVEQPTLYWHVKNKRALLDALPIEMLDRHHTHSCPLEGESWQDFLRNNAKSYRCALLSHRDGAKVHLGTRPTEKQYETLENQLAFLCQQGFSLENALYALSAVDHFTLGCVLEEQEHQVAKEERETPTTDSMPPLLRQAIELFDRQGAEPAFLFGLELIICGLEKQLKCESGGPADALDDFDLDMLPADALDDFDLDMLPADALDDFDLDMLPG
  basal / background activity in the absence of inducer: no or low basal activity

B4: V9I E37Q G138D F86Y: rtTA variant with these amino acid substitutions (protein)
chain: MSRLDKSKIINSALELLNGVGIEGLTTRKLAQKLGVQQPTLYWHVKNKRALLDALPIEMLDRHHTHFCPLEGESWQDFLRNNAKSYRCALLSHRDGAKVHLGTRPTEKQYETLENQLAFLCQQGFSLENALYALSAVDHFTLGCVLEEQEHQVAKEERETPTTDSMPPLLRQAIELFDRQGAEPAFLFGLELIICGLEKQLKCESGGPADALDDFDLDMLPADALDDFDLDMLPADALDDFDLDMLPG
  basal / background activity in the absence of inducer: no or low basal activity

B5: V9I E37Q G138D F86Y A209T: rtTA variant with these amino acid substitutions (protein)
chain: MSRLDKSKIINSALELLNGVGIEGLTTRKLAQKLGVQQPTLYWHVKNKRALLDALPIEMLDRHHTHFCPLEGESWQDFLRNNAKSYRCALLSHRDGAKVHLGTRPTEKQYETLENQLAFLCQQGFSLENALYALSAVDHFTLGCVLEEQEHQVAKEERETPTTDSMPPLLRQAIELFDRQGAEPAFLFGLELIICGLEKQLKCESGGPTDALDDFDLDMLPADALDDFDLDMLPADALDDFDLDMLPG
  rtTA activation by minocycline (Mc): particularly sensitive for minocycline
  rtTA activation by tetracycline (Tc): particularly sensitive for tetracycline
  basal / background activity in the absence of inducer: no or low basal activity

B6: V9I G19M F67S G138D F86Y: rtTA variant with these amino acid substitutions (protein)
chain: MSRLDKSKIINSALELLNMVGIEGLTTRKLAQKLGVEQPTLYWHVKNKRALLDALPIEMLDRHHTHSCPLEGESWQDFLRNNAKSYRCALLSHRDGAKVHLGTRPTEKQYETLENQLAFLCQQGFSLENALYALSAVDHFTLGCVLEEQEHQVAKEERETPTTDSMPPLLRQAIELFDRQGAEPAFLFGLELIICGLEKQLKCESGGPADALDDFDLDMLPADALDDFDLDMLPADALDDFDLDMLPG
  basal / background activity in the absence of inducer: no or low basal activity

B7: V9I S12G F67S G138D F86Y A209T: rtTA variant with these amino acid substitutions (protein)
chain: MSRLDKSKIINGALELLNGVGIEGLTTRKLAQKLGVEQPTLYWHVKNKRALLDALPIEMLDRHHTHSCPLEGESWQDFLRNNAKSYRCALLSHRDGAKVHLGTRPTEKQYETLENQLAFLCQQGFSLENALYALSAVDHFTLGCVLEEQEHQVAKEERETPTTDSMPPLLRQAIELFDRQGAEPAFLFGLELIICGLEKQLKCESGGPTDALDDFDLDMLPADALDDFDLDMLPADALDDFDLDMLPG
[2]
  rtTA activation by minocycline (Mc): particularly sensitive for minocycline; also recorded: very sensitive for minocycline
  rtTA activation by tetracycline (Tc): very sensitive for tetracycline
  basal / background activity in the absence of inducer: low background activity
Listed as 512G F67S V9I G138D F86Y A209T
  rtTA activation by tetracycline (Tc): particularly sensitive for tetracycline
  basal / background activity in the absence of inducer: no or low basal activity

B8: V9I G19M G138D F86Y: rtTA variant with these amino acid substitutions (protein)
chain: MSRLDKSKIINSALELLNMVGIEGLTTRKLAQKLGVEQPTLYWHVKNKRALLDALPIEMLDRHHTHFCPLEGESWQDFLRNNAKSYRCALLSHRDGAKVHLGTRPTEKQYETLENQLAFLCQQGFSLENALYALSAVDHFTLGCVLEEQEHQVAKEERETPTTDSMPPLLRQAIELFDRQGAEPAFLFGLELIICGLEKQLKCESGGPADALDDFDLDMLPADALDDFDLDMLPADALDDFDLDMLPG
  basal / background activity in the absence of inducer: no or low basal activity

B9: V9I G19M G138D F86Y A209T: rtTA variant with these amino acid substitutions (protein)
chain: MSRLDKSKIINSALELLNMVGIEGLTTRKLAQKLGVEQPTLYWHVKNKRALLDALPIEMLDRHHTHFCPLEGESWQDFLRNNAKSYRCALLSHRDGAKVHLGTRPTEKQYETLENQLAFLCQQGFSLENALYALSAVDHFTLGCVLEEQEHQVAKEERETPTTDSMPPLLRQAIELFDRQGAEPAFLFGLELIICGLEKQLKCESGGPTDALDDFDLDMLPADALDDFDLDMLPADALDDFDLDMLPG
  rtTA activation by minocycline (Mc): particularly sensitive for minocycline
  rtTA activation by tetracycline (Tc): particularly sensitive for tetracycline
  basal / background activity in the absence of inducer: no or low basal activity

From patent USRE49583E1, “Inducible expression systems” (priority 2005, dated 2023)
